The values below come from publication PMC3578176 (Cancer research, 2012).

The experiment deals with His(6)-p300 (UniProt Q09472 1-2414). The experiment can be described thus: pull-down.
Sequence of His(6)-p300 (Q09472 whole entry): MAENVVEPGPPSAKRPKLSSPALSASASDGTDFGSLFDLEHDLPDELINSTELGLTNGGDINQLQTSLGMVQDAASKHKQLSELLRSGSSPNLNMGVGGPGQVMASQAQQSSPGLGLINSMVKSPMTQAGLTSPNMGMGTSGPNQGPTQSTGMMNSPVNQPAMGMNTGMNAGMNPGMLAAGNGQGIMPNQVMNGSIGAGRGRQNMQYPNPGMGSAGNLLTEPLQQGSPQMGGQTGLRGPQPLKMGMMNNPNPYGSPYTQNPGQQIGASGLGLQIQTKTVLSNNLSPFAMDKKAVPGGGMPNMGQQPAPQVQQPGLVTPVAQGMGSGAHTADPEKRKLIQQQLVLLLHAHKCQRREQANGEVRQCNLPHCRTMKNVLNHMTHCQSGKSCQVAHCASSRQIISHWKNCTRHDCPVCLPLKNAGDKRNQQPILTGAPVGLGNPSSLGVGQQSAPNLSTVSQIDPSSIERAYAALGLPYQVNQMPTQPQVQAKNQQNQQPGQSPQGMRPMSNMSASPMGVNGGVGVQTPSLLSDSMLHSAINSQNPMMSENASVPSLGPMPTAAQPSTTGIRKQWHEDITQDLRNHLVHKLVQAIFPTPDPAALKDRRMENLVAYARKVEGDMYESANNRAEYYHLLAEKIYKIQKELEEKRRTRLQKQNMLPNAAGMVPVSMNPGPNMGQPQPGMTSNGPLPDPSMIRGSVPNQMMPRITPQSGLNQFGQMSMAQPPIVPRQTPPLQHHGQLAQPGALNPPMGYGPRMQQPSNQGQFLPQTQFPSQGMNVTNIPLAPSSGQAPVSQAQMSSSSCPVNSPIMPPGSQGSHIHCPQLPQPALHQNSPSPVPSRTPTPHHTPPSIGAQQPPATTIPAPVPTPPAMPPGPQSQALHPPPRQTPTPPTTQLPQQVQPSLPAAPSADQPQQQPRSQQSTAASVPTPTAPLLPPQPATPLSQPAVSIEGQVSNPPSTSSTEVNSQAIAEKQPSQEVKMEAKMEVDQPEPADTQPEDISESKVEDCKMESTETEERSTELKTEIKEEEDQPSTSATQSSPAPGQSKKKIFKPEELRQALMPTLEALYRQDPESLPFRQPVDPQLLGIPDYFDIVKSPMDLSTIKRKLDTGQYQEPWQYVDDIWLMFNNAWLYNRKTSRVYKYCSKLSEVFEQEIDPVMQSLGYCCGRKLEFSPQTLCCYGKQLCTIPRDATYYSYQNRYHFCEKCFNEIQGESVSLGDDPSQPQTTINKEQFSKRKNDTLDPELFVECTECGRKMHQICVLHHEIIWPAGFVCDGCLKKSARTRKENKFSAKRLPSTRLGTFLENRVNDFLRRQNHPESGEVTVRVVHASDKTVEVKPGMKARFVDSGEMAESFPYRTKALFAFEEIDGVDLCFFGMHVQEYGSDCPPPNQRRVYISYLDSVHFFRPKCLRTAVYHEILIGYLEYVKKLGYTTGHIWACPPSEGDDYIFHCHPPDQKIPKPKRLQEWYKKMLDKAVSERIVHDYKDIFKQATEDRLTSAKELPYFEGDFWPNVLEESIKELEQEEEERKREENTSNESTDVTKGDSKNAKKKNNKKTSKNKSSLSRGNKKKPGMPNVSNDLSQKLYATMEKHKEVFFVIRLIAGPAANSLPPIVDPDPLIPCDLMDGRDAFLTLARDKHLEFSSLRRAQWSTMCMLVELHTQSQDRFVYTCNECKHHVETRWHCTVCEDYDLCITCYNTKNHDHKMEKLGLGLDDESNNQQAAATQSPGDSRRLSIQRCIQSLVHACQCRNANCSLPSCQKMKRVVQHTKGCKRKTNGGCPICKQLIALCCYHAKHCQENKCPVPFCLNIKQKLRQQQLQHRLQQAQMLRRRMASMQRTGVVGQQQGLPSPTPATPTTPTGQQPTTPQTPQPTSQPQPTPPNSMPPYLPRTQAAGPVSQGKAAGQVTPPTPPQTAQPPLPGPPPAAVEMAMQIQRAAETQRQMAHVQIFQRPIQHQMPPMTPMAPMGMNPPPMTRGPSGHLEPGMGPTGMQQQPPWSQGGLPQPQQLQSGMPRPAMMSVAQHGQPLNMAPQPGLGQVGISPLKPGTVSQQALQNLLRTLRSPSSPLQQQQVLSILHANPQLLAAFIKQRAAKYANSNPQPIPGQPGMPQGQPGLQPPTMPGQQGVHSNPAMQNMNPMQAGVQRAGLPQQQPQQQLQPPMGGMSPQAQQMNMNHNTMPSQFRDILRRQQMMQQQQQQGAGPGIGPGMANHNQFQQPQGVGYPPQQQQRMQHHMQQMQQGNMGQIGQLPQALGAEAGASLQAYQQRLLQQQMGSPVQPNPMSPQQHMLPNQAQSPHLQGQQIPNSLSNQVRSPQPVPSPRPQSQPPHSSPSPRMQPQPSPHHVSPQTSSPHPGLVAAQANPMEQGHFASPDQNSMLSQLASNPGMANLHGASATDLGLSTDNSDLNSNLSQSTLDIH

B1: GST-fused BRMS1 WT (natural protein, UniProt Q9HCU9 1-246, looked up)
chain: MPVQPPSKDTEEMEAEGDSAAEMNGEEEESEEERSGSQTESEEESSEMDDEDYERRRSECVSEMLDLEKQFSELKEKLFRERLSQLRLRLEEVGAERAPEYTEPLGGLQRSLKIRIQVAGIYKGFCLDVIRNKYECELQGAKQHLESEKLLLYDTLQGELQERIQRLEEDRQSLDLSSEWWDDKLHARGSSRSWDSLPPSKRKKAPLVSGPYIVYMLQEIDILEDWTAIKKARAAVSPQKRKSDGP
As for B1, the binding result is “binds”.
